Measured values taken from patent publication US20180030151A1 (MOGAM INSTITUTE FOR BIOMEDICAL RESEARCH, published 2018).
Where a chain is given by its changes, count along the chain named. Read-outs that look alike come from different tables or passages of the source. Each block holds one binder with its values, some of them ahead of it.

Tests used:
Assay in all cases: cell-based or functional assay
[1] = target: T1, recombinant human TFPI (tissue factor pathway inhibitor) (human, UniProt P10646 29-304)
[2] = target: T1, recombinant human TFPI (tissue factor …); remark: listed apart in the source
[3] = target: T1, recombinant human TFPI (tissue factor …); remark: listed apart in the source
[4] = target: T1, recombinant human TFPI (tissue factor …); remark: listed apart in the source
[5] = target: T1, recombinant human TFPI (tissue factor …); remark: listed apart in the source
[6] = target: T1, recombinant human TFPI (tissue factor …); remark: listed apart in the source

B4: clone 1216 (antibody, V domains shown)
VH: EVQLVESGGGLVKPGGSLRLSCAASGFTFSHYAMNWVRQAPGKGLEWVSTITTGGSYTYYADSVEGRFTISRDNAKNSLYLQMNSLRAEDTAVYYCARQDGHFLMDYWGQGTLVTVSS
VL: DVVMTQTPLSLPVTLGQPASISCKSSQSLLDIDGKTYLNWLQQRPGQSPKRLIYLVSKLDSGVPDRFTGSGSGTDFTLKISRVEAEDVGVYYCWQGTHLPFTFGQGTKVEIKR
FXa assay % of FXa alone, 2.5 nM Ab, 10 nM TFPI [3]: 3.6%
FXa assay % of FXa alone, 5 nM Ab, 10 nM TFPI [3]: 4%
FXa assay % of FXa alone, 10 nM Ab, 10 nM TFPI [3]: 3.6%
FXa assay % of FXa alone, 20 nM Ab, 10 nM TFPI [3]: 3.3%

B5: clone 1021 (antibody, V domains shown)
VH: B4 VH with H31S, E65D
VL: B4 VL with L99F
FXa assay % of FXa alone, 2.5 nM Ab, 10 nM TFPI [4]: 4.7%
FXa assay % of FXa alone, 10 nM Ab, 10 nM TFPI [4]: 32.9%
FXa assay % of FXa alone, 20 nM Ab, 10 nM TFPI [4]: 78.7%
FXa assay OD, 2.5 nM Ab, 10 nM TFPI [4]: 0.034
FXa assay OD, 10 nM Ab, 10 nM TFPI [4]: 0.236
FXa assay OD, 20 nM Ab, 10 nM TFPI [4]: 0.566

B7: clone 10 (antibody, V domains shown)
VH: B4 VH with H31S, E65Q, H102N
VL: B4 VL with Q27P, I32V, L99F
FXa assay % of FXa alone, 2.5 nM Ab, 10 nM TFPI [5]: 9.6%
FXa assay % of FXa alone, 5 nM Ab, 10 nM TFPI [5]: 5.1%
FXa assay % of FXa alone, 10 nM Ab, 10 nM TFPI [5]: 11.8%
FXa assay % of FXa alone, 20 nM Ab, 10 nM TFPI [5]: 38.4%
FXa assay OD, 2.5 nM Ab, 10 nM TFPI [5]: 0.073
FXa assay OD, 5 nM Ab, 10 nM TFPI [5]: 0.0385
FXa assay OD, 10 nM Ab, 10 nM TFPI [5]: 0.09
FXa assay OD, 20 nM Ab, 10 nM TFPI [5]: 0.292

B10: clone 1001 (antibody, V domains shown)
VH: B4 VH with H31S, E65D, H102N
VL: B4 VL with L99F
FXa assay % of FXa alone, 2.5 nM Ab, 10 nM TFPI [6]: 6.4%
FXa assay % of FXa alone, 5 nM Ab, 10 nM TFPI [6]: 10.3%
FXa assay % of FXa alone, 10 nM Ab, 10 nM TFPI [6]: 66.9%
FXa assay % of FXa alone, 20 nM Ab, 10 nM TFPI [6]: 73.9%
FXa assay OD, 2.5 nM Ab, 10 nM TFPI [6]: 0.031
FXa assay OD, 5 nM Ab, 10 nM TFPI [6]: 0.05
FXa assay OD, 10 nM Ab, 10 nM TFPI [6]: 0.324
FXa assay OD, 20 nM Ab, 10 nM TFPI [6]: 0.357

The remaining lines, values ahead:

FXa assay % of FXa alone, 2.5 nM Ab, 10 nM TFPI [1]: 6.4%
FXa assay % of FXa alone, 5 nM Ab, 10 nM TFPI [1]: 9.1%
FXa assay % of FXa alone, 10 nM Ab, 10 nM TFPI [1]: 33.4%
FXa assay % of FXa alone, 20 nM Ab, 10 nM TFPI [1]: 81.3%
FXa assay OD, 2.5 nM Ab, 10 nM TFPI [1]: 0.0495
FXa assay OD, 5 nM Ab, 10 nM TFPI [1]: 0.07
FXa assay OD, 10 nM Ab, 10 nM TFPI [1]: 0.258
FXa assay OD, 20 nM Ab, 10 nM TFPI [1]: 0.626
B1: clone 3120 (antibody, V domains shown)
VH: B4 VH with H31S, H102Y
VL: B4 VL with L99F

FXa assay % of FXa alone, 2.5 nM Ab, 10 nM TFPI [1]: 6.2%
FXa assay % of FXa alone, 5 nM Ab, 10 nM TFPI [1]: 8.1%
FXa assay % of FXa alone, 10 nM Ab, 10 nM TFPI [1]: 16.2%
FXa assay % of FXa alone, 20 nM Ab, 10 nM TFPI [1]: 69.1%
FXa assay OD, 10 nM Ab, 10 nM TFPI [1]: 0.125
FXa assay OD, 20 nM Ab, 10 nM TFPI [1]: 0.532
B2: clone 3115 (antibody, V domains shown)
VH: B4 VH with H31S, S49G, Y57H, E65D, H102N
VL: B4 VL with I32V, L99F

FXa assay % of FXa alone, 2.5 nM Ab, 10 nM TFPI [2]: 4.7%
FXa assay % of FXa alone, 5 nM Ab, 10 nM TFPI [2]: 6.1%
FXa assay % of FXa alone, 10 nM Ab, 10 nM TFPI [2]: 7.1%
FXa assay % of FXa alone, 20 nM Ab, 10 nM TFPI [2]: 38.6%
FXa assay OD, 2.5 nM Ab, 10 nM TFPI [2]: 0.038
FXa assay OD, 20 nM Ab, 10 nM TFPI [2]: 0.314
B3: clone 4206 (antibody, V domains shown)
VH: B4 VH with H31S, Y57H, N84D, H102N
VL: B4 VL with I32V

FXa assay % of FXa alone, 2.5 nM Ab, 10 nM TFPI [3]: 3.8%
FXa assay % of FXa alone, 5 nM Ab, 10 nM TFPI [3]: 3.6%
FXa assay % of FXa alone, 10 nM Ab, 10 nM TFPI [3]: 4.5%
FXa assay % of FXa alone, 20 nM Ab, 10 nM TFPI [3]: 4%
B6: clone 1234 (antibody, V domains shown)
VH: B4 VH with H31S, E65Q, H102N
VL: B4 VL with K79E, L99F

FXa assay % of FXa alone, 2.5 nM Ab, 10 nM TFPI [1]: 6.4%
FXa assay % of FXa alone, 5 nM Ab, 10 nM TFPI [1]: 8.4%
FXa assay % of FXa alone, 10 nM Ab, 10 nM TFPI [1]: 16.7%
FXa assay % of FXa alone, 20 nM Ab, 10 nM TFPI [1]: 80.5%
FXa assay OD, 2.5 nM Ab, 10 nM TFPI [1]: 0.0495
FXa assay OD, 10 nM Ab, 10 nM TFPI [1]: 0.129
FXa assay OD, 20 nM Ab, 10 nM TFPI [1]: 0.62
B8: clone 4141 (antibody, V domains shown)
VH: B4 VH with H31S, S49G, Y57H, H102Y
VL: B4 VL with I32V, L99F

FXa assay % of FXa alone, 2.5 nM Ab, 10 nM TFPI [4]: 3.5%
FXa assay % of FXa alone, 5 nM Ab, 10 nM TFPI [4]: 3.6%
FXa assay % of FXa alone, 10 nM Ab, 10 nM TFPI [4]: 3.6%
FXa assay % of FXa alone, 20 nM Ab, 10 nM TFPI [4]: 3%
B9: clone 3007 (antibody, V domains shown)
VH: B4 VH with S30T, H31S, T53L, E65Q, H102N
VL: B4 VL with I32L, L99F
